Measured values: publication PMC4167758

What was measured:
SelK U92C (Homo sapiens) [1] = target: SelK U92C (Homo sapiens) (UniProt Q9Y6D0); assay: SDS-PAGE under non-reducing conditions
SelK U92C (Homo sapiens) [2] = target: SelK U92C (Homo sapiens) (UniProt Q9Y6D0); assay: electrospray ionization mass spectrometry
SelK U92C (Homo sapiens) [3] = target: SelK U92C (Homo sapiens) (UniProt Q9Y6D0); assay: redox titration with gel shift on non-reducing SDS-PAGE
SelK U92S (Homo sapiens) = SelK U92S (Homo sapiens) (UniProt Q9Y6D0); assay: SDS-PAGE at high protein concentration

| stoichiometry N (SelK U92C (Homo sapiens) [1]) | stoichiometry N (SelK U92C (Homo sapiens) [2]) | stoichiometry N (SelK U92C (Homo sapiens) [3]) | stoichiometry N (SelK U92S (Homo sapiens)) | Substance |
| --- | --- | --- | --- | --- |
| 2 | 2 | 2 |  | SelK U92C (from UniProt Q9Y6D0 2-94) (natural protein) |
|  |  |  | 2 | SelK U92S (from UniProt Q9Y6D0 2-94) (natural protein) |
